The target of the test is CD3ζ subunit of the T cell receptor (TCR) in nonactivated Jurkat T cells (human (endogenous in Jurkat)) (UniProt P20963). Kind of test: single-molecule localization microscopy (DNA-PAINT with qPAINT counting); nonactivated Jurkat T cells, TIRF; stepwise model: Ka,j of a monomer joining a cluster of j-1 proteins, from the distribution of cluster sizes, j = 2 to 8, average of eight cells.

As to “CD3ζ subunit of the T cell receptor (TCR) in nonactivated Jurkat T cells (from UniProt P20963-1 22-164)”, the log Ka,j (stepwise association of a monomer to a cluster, j = 2-8) (log, μm^2 scale) was -1.4.

For the origin of these results see PMC11528428.
